Results taken from patent US20260092097A1 (ALTOR BIOSCIENCE, published 2026).

T1: IL-15 receptor (IL-15RβγC) on 32Dβ cells (human; mouse, UniProt P14784 27-551; P34902 23-369)
T1 sequence (looked up) 1: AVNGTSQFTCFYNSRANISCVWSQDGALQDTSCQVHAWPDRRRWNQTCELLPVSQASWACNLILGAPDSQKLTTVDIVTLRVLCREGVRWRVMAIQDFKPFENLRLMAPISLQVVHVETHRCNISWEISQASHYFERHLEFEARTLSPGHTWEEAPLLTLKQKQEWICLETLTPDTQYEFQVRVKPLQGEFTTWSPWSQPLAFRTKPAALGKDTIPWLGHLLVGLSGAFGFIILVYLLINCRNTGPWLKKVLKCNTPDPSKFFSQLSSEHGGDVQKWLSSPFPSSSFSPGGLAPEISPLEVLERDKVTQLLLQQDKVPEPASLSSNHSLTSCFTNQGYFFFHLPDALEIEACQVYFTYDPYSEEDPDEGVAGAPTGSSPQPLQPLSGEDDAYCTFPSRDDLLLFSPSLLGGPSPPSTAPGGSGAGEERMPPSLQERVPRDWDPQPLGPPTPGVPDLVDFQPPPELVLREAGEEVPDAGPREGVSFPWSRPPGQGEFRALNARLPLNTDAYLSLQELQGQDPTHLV
T1 sequence (looked up) 2: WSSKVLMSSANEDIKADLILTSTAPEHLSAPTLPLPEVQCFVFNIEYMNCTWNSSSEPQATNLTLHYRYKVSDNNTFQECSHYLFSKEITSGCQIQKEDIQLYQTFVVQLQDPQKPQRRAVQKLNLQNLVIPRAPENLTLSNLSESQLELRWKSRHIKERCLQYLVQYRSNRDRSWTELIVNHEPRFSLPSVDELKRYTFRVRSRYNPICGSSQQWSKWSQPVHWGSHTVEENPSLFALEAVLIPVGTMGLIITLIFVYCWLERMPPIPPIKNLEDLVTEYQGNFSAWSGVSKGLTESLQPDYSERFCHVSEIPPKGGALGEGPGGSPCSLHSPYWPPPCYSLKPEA

B1: in vitro assembled IL-15N72D:IL-15RαSu/Fc complex (IL-15N72D:IL-15RαSu/Fc IVA) (Fc fusion)
chain 1: PELLGG
chain 2: PEAAGG
B2: IL-15N72D:IL-15RαSu/Fc complex (Alt-803) (Fc fusion)
chain 1: PELLGG
chain 2: PEAAGG

Target: T1, IL-15 receptor (IL-15RβγC) on 32Dβ cells
Assay: cell-based or functional assay

Row | Binder | IL-15 dependent 32Dβ cell proliferation, EC50 [nM]
1 | B1 | 0.0158
2 | B2 | 0.0156
